In general, EC50 (read off the curve) refers to the midpoint of the concentration-response curve. A word on the Kd: it is the constant that tells how readily two partners part at equilibrium. As usually defined, the koff is the rate constant with which the complex falls apart. Usually kon stands for the rate constant with which the complex forms.

The record followed here is patent US20260055194A1 (LYCIA THERAPEUTICS, published 2026).

In experiment [1] the target is human CI-M6PR on K562 cells (human, UniProt P11717 41-2491). The experiment in a line: cell-based or functional assay.
For experiment [2], the target named is T1, purified recombinant CI-M6PR (domains 1-9) protein (human, UniProt P11717 41-1365, limits assumed).
T1 construct: domain: domains 1-9; also called human CI-M6PR; wild-type human CI-M6PR
The experiment in a line: ELISA on human M6PR, Abs 450nm, antibody about 0.0005-1 ug/mL. (In general: ELISA stands for enzyme-linked immunosorbent assay.)

Experiment [3] has as its target T2, Recombinant human M6PR ECD-His (human, UniProt P11717 41-2304).
T2 construct: extracellular domain; also called recombinant His-tagged human M6PR; human M6PR antigen; not shown: His tag
The experiment in a line: Octet BLI; mIgG from hybridoma supernatant on anti-mouse biosensor, His-tagged human M6PR analyte. Background: Biolayer interferometry detects binding as a change in optical thickness at a sensor tip.

Experiment [4] concerns the target T1, purified recombinant CI-M6PR (domains …). Nature of the experiment: BLI (GatorPrime), antibody on anti-mouse IgG Fc sensor, CI-M6PR (domains 1-9) in solution, global 1:1 fit.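 Also: human CI-M6PR tested at a range of concentrations against captured antibodies, measured at 30 °C, analyte diluted in PBS carrying Tween-20, BSA and NaN3.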

B1: 03C7 (antibody, V domains shown)
VH: QVQLQQSGPELVKPGASVKISCKASGYSFTSYYIHWVKQRPGQGLEWIGWIYPGSGNTKYNEKFKGKATLTADTSSSTAYMQLSSLTSEDSAVYYCARMGSSYWYFDVWGTGTTVTVSS
VL: ENVLTQSPAIMAASLGQKVTMTCSASSSVSSSYLHWYQQKSGASPKPLIHRTSNLASGVPARFSGSGSGTSYSLTISSVEAEDDATYYCQQWSGYPLTFGAGTKLELK
notes: also called Clone # 85
For B1, the “Uptake pHrodo (MFI)” value in experiment [1] came out at 41700 MFI. Also, the “EC50 (read off the curve)” value in experiment [2] is around 0.01 µg/mL. For the same molecule, in experiment [3], the Kd was 17.5 nM. For the same molecule, in experiment [4], the Kd came to 24.9 nM, the off-rate (koff) worked out at 0.0154 s⁻¹ and the kon came out at 618000 M⁻¹ s⁻¹.
